Results published in patent US20240317847A1 (Bayer, published 2024).

T1: human IL-11 (Invigate, e.g., lot #C121021-19) (human, UniProt P20809 22-199)
T1 sequence: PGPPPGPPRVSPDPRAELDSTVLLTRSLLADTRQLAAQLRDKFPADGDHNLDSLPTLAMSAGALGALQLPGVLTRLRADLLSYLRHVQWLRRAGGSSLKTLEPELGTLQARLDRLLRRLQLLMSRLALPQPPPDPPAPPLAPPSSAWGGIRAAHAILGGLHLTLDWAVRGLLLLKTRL

T2: murine IL-11 (Invigate, e.g., lot #C210819-09) (mouse, UniProt P47873 22-199)
T2 sequence: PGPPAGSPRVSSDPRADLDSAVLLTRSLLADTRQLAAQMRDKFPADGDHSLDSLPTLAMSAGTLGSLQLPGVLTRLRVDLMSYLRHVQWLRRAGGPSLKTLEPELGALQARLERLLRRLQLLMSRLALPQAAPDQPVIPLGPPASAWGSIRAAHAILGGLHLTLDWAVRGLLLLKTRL


How the values were obtained:
[1] = molecular target: T1, human IL-11 (Invigate, e.g., lot …); test: cell-based or functional assay
[2] = molecular target: T2, murine IL-11 (Invigate, e.g., lot …); test: cell-based or functional assay
[3] = molecular target: T1, human IL-11 (Invigate, e.g., lot …); test: SPR, Biacore T200, 25 C; antibody captured via anti-mouse Fc, IL-11 as analyte, 1:1 Langmuir fit
Description: (§1) Antibodies were captured via anti-mouse Fc IgGs (“Mouse antibody capture kit, Order No. BR100383, Cytiva) covalently amine coupled to a Series S CM5 sensor chip (Cytiva). The amine coupling was carried out according to the manufacturer's instructions using 1-ethyl-3-(3-dimethylaminopropyl) carbodiimide hydrochloride (EDC), N-hydroxysuccinimide (NHS) and ethanolamine HCl, pH 8.5 (“Amine Coupling Kit” BR-1000-50, Cytiva.). Human IL-11 (Invigate, e.g., lot #C121021-19), and murine IL-11 (Invigate, e.g., lot #C210819-09) were used as analytes. […] Based on that experiment an IL-11 concentration range was chosen to optimally determine kinetics and affinity of anti-IL-11 antibodies in multicycle kinetics mode. The sensor surface was regenerated with glycine pH 1.7 after each antigen injection. Obtained sensorgrams were double referenced (subtraction of reference flow cell signal and buffer injection) and were fitted to a 1:1 Langmuir binding model to derive kinetic data using the Biacore T200 Evaluation software or the Biacore Insight software.

[4] = molecular target: T2, murine IL-11 (Invigate, e.g., lot …); test: as above
Description: as §1

[5] = molecular target: T1, human IL-11 (Invigate, e.g., lot …); test: Tri-complex ELISA: antibody titrated against 8 nM human IL-11, 2 nM human gp130-human-Fc and 2 nM murine IL11RA-murine-Fc
Description: (§2) In the Tri-complex ELISA format IL-11 antibodies are tested for their ability to inhibit the formation of a complex consisting of murine or human gp130-Fc fusion protein, with murine or human IL-11, and a murine IL11RA-Fc fusion protein. The assay format was adapted according to FIG. 18 (a, b), depending on whether murine or human IL-11 IgG antibodies were tested.
(§3) The assay was performed using High Binding microtiter plates (Greiner, #781077). In a first step, 25 μl of goat anti human IgG (Sigma, #12136), diluted 1:1000 in coating buffer (Candor, #121125) was coated on the plate at 4° C. overnight. Next day, the plate was washed one time with 50 μl PBST and then blocked with 50 μl SmartBlock (Candor, #113125) for one hour at room temperature (RT). […] After three additional washes of the coated and blocked microtiter plate with PBS-T, 25 μl of each mixture were added and the assay plate was incubated for one hour at room temperature. After three additional washes, anti-mouse-gp130 biotinylated antibody (R&D, #BAF468) or anti-human gp130 biotinylated antibody (R&D, #BAF228), both 1:1000 in 10% SmartBlock PBS-T, was added and incubated for 1 hour at RT. After three additional washes, a Streptavidin-Peroxidase conjugate (Sigma, #S5512) 1:1000 in SmartBlock PBS-T was added and incubated for one hour at room temperature. After a final three washes, AmplexRed (Fisher Scientific, A12222), 1/1000 in PBS, 0,003% H₂O₂, was added as substrate and incubated for 15 min at RT in the dark. Then, the fluorescence was measured with a plate reader at 535/595 nm. Signals from dose responses were used to calculate IC50 values using GraphPad Prism software.

[6] = molecular target: T2, murine IL-11 (Invigate, e.g., lot …); test: Tri-complex ELISA: antibody titrated against 8 nM murine IL-11, 2 nM murine gp130-human-Fc and 2 nM murine IL11RA-murine-Fc
Description: as §2, §3

[7] = molecular target: T1, human IL-11 (Invigate, e.g., lot …); test: Di-complex ELISA: biotinylated human IL-11 on streptavidin plate, antibody titrated against 2 nM canine IL11RA-human-Fc (competitor)
Description: (§4) In the Di-complex ELISA format anti IL-11 antibodies are tested for the ability to interfere with the formation of complexes consisting of immobilized murine IL-11 (Invigate, e.g., lot #C210819-09) or human IL-11 (Invigate, e.g., lot #C121021-19), and murine IL11RA-Fc fusion proteins or canine IL11RA-human-Fc fusion protein (FIG. 17a, b).
(§5) The assay is performed using streptavidin coated microtiter plates (Greiner bio-one, #781997). In a first step, 10 nM biotinylated mouse IL-11 (Invigate, Germany, e.g., lot #C210819-09) or human IL-11 (Invigate, Germany, e.g., lot #C121021-19) is coated in 25 μl PBS on the plate at 4° C. overnight. Next day, the plate is washed three times with 50 μl PBST and then blocked with 50 μl SmartBlock (Candor, #113125) for one hour at room temperature (RT). After additional three washes with PBST, 25 μl of a mixture of the murine anti IL-11 antibody and recombinant canine IL11RA-Fc fusion protein (Sino Biological, #70078-D02H) in PBS-T, 10% Smartblock are added simultaneously to the plate and incubated for one hour at RT. […] After three additional washes with PBS-T, 25 μl anti-human-POD (Sigma, #A0170) in PBS-T, 10% Smartblock is added and incubated for 1 hour at RT. After a final three washes with PBS-T, 25 μl AmplexRed (Fisher Scientific, A12222), 1/1000 in PBS, 0,003% H₂O₂, is added as substrate and incubated for 15 min at RT in the dark. Then, the fluorescence is measured with a plate reader at 535/595 nm. Signals from dose responses were used to calculate IC50 values (GraphPad Prism). Efficacy was calculated as [(signal measured at lowest antibody concentration−signal measured at the highest antibody concentration)×100] divided by (signal measured at lowest antibody concentration−signal measured in the absence of IL11Ra).

[8] = molecular target: T2, murine IL-11 (Invigate, e.g., lot …); test: Di-complex ELISA: biotinylated murine IL-11 on streptavidin plate, antibody titrated against 2 nM canine IL11RA-human-Fc (competitor)
Description: as §4, §5

Efficacy (%), Stat3 reporter gene assay, human IL11RA, 0.78 nM hIL-11 [1] [%]	IC50 [M], Stat3 reporter gene assay, HEK 293F transfected with human IL11RA, 0.78 nM hIL-11 [1] [M]	Efficacy (%), Stat3 reporter gene assay, mouse Il11ra, 3.13 nM mIL-11 [2] [%]	IC50 [M], Stat3 reporter gene assay, HEK 293F transfected with mouse Il11ra, 3.13 nM mIL-11 [2] [M]	Kd [3] [nM]	Kd [4] [nM]	Efficacy (%) [5] [%]	Efficacy (%) [6] [%]	IC50 [6] [nM]	Efficacy (%) [7] [%]	Efficacy (%) [8] [%]	IC50 [8] [nM]	IC50 [5] [nM]	IC50 [7] [nM]	Binder
20.7	4.83e-09	84.1	2.67e-09	48	0.72	7.3	37.1	66	19.6	72.7	2.5	–	–	TPP-18068 (antibody, mouse IgG1, mIgG1, Lambda) heavy: EVQLLESGGGLVQPGGSLRLSCAASGFTFSSYGMHWVRQAPGKGLEWVSVISYDGSYKYYADSVKGRFTISRDNSKNTLYLQMNSLRAEDTAVYYCAAGVPDYWGQGTLVTVSSAKTTPPSVYPLAPGSAAQTNSMVTLGCLVKGYFPEPVTVTWNSGSLSSGVHTFPAVLQSDLYTLSSSVTVPSSTWPSETVTCNVAHPASSTKVDKKIVPRDCGCKPCICTVPEVSSVFIFPPKPKDVLTITLTPKVTCVVVDISKDDPEVQFSWFVDDVEVHTAQTQPREEQFNSTFRSVSELPIMHQDWLNGKEFKCRVNSAAFPAPIEKTISKTKGRPKAPQVYTIPPPKEQMAKDKVSLTCMITDFFPEDITVEWQWNGQPAENYKNTQPIMDTDGSYFVYSKLNVQKSNWEAGNTFTCSVLHEGLHNHHTEKSLSHSPGK light: QSVLTQPPSASGTPGQRVTISCTGSSSNIGAGYDVHWYQQLPGTAPKLLIYSNNERPSGVPDRFSGSKSGTSASLAISGLRSEDEADYYCAAWDDSLNGPVFGGGTKLTVLGQPKSSPSVTLFPPSSEELETNKATLVCTITDFYPGVVTVDWKVDGTPVTQGMETTQPSKQSNNKYMASSYLTLTARAWERHSSYSCQVTHEGHTVEKSLSRADCS
54.3	1.1e-07	60	9.5e-08	53	10	60.6	36.3	170	42	68.9	12	92	54	TPP-18063 (antibody, mouse IgG1, V domains shown, mIgG1, Lambda) VH: EVQLLESGGGLVQPGGSLRLSCAASGFTFSDYYMSWIRQAPGKGLEWVSGINWNGGSTGYADSVKGRFTISRDNSKNTLYLQMNSLRAEDTAVYYCATWDGPFDYWGQGTLVTVSS VL: QSVLTQPPSASGTPGQRVTISCTGSSSNIGAGYDVHWYQQLPGTAPKLLIYYDDLLPSGVPDRFSGSKSGTSASLAISGLRSEDEADYYCQSYDSSLGGSVFGGGTKLTVLG
